Source: patent US20220308072A1

Assays:
[1] = target: Recombinant, his tagged full length human frataxin protein (Abcam ab95502) (human) (UniProt Q16595); assay: Simoa sandwich 2-step (120 min-5 min); capture Ab-1; frataxin 2.74 pg/mL
[2] = target: Recombinant, his tagged full length human frataxin protein (Abcam ab95502) (human) (UniProt Q16595); assay: Simoa sandwich 2-step; capture Ab-1; 150 pM SβG; frataxin 0.686 pg/mL
[3] = target: Recombinant, his tagged full length human frataxin protein (Abcam ab95502) (human) (UniProt Q16595); assay: Simoa sandwich 2-step (120 min-5 min); capture Ab-1; frataxin 667 pg/mL
[4] = target: Recombinant, his tagged full length human frataxin protein (Abcam ab95502) (human) (UniProt Q16595); assay: Simoa sandwich 2-step (120 min-5 min); capture Ab-1; Diluent 1 + 5% NCS; frataxin 0.823 pg/mL
[5] = target: Recombinant, his tagged full length human frataxin protein (Abcam ab95502) (human) (UniProt Q16595); assay: Simoa sandwich 3-step; capture Ab-5; frataxin 100 pg/mL
[6] = target: Recombinant, his tagged full length human frataxin protein (Abcam ab95502) (human) (UniProt Q16595); assay: Simoa sandwich 2-step; capture Ab-1; frataxin 167 pg/mL
[7] = target: Recombinant, his tagged full length human frataxin protein (Abcam ab95502) (human) (UniProt Q16595); assay: Simoa sandwich 2-step; capture Ab-2; frataxin 2.06 pg/mL
[8] = target: Recombinant, his tagged full length human frataxin protein (Abcam ab95502) (human) (UniProt Q16595); assay: Simoa sandwich 2-step (120 min-5 min); capture Ab-1; Diluent 1 + 5% NCS; frataxin 4.12 pg/mL
[9] = target: Recombinant, his tagged full length human frataxin protein (Abcam ab95502) (human) (UniProt Q16595); assay: Simoa sandwich 2-step (120 min-5 min); capture Ab-1; Diluent 1 + 10% NCS; frataxin 7.41 pg/mL
[10] = target: Recombinant, his tagged full length human frataxin protein (Abcam ab95502) (human) (UniProt Q16595); assay: Simoa sandwich 2-step; capture Ab-1
[11] = target: Recombinant, his tagged full length human frataxin protein (Abcam ab95502) (human) (UniProt Q16595); assay: Simoa sandwich 2-step (120 min-5 min); capture Ab-1; Diluent 1 + 10% NCS; frataxin 333 pg/mL
[12] = target: Recombinant, his tagged full length human frataxin protein (Abcam ab95502) (human) (UniProt Q16595); assay: Simoa sandwich 2-step (120 min-5 min); capture Ab-1; Diluent 1 + 5% NCS; frataxin 2.47 pg/mL
[13] = target: Recombinant, his tagged full length human frataxin protein (Abcam ab95502) (human) (UniProt Q16595); assay: Simoa sandwich 2-step (120 min-5 min); capture Ab-1; Diluent 1 + 10% NCS; frataxin 0.274 pg/mL
[14] = target: Recombinant, his tagged full length human frataxin protein (Abcam ab95502) (human) (UniProt Q16595); assay: Simoa sandwich; capture Ab-1; no helper beads
[15] = target: Recombinant, his tagged full length human frataxin protein (Abcam ab95502) (human) (UniProt Q16595); assay: Simoa sandwich 2-step (120 min-5 min); capture Ab-1; Diluent 1 + 10% NCS; frataxin 111 pg/mL
[16] = target: Recombinant, his tagged full length human frataxin protein (Abcam ab95502) (human) (UniProt Q16595); assay: Simoa sandwich; capture Ab-1; no helper beads; frataxin 55.6 pg/mL
[17] = target: Recombinant, his tagged full length human frataxin protein (Abcam ab95502) (human) (UniProt Q16595); assay: Simoa sandwich 2-step (120 min-5 min); capture Ab-1; Diluent 1 + 5% NCS; frataxin 1.37 pg/mL
[18] = target: Recombinant, his tagged full length human frataxin protein (Abcam ab95502) (human) (UniProt Q16595); assay: Simoa sandwich 2-step; capture Ab-1; 150 pM SβG; frataxin 6.17 pg/mL
[19] = target: Recombinant, his tagged full length human frataxin protein (Abcam ab95502) (human) (UniProt Q16595); assay: Simoa sandwich 3-step; capture Ab-1
[20] = target: Recombinant, his tagged full length human frataxin protein (Abcam ab95502) (human) (UniProt Q16595); assay: Simoa sandwich 3-step; capture Ab-1; frataxin 100 pg/mL
[21] = target: Recombinant, his tagged full length human frataxin protein (Abcam ab95502) (human) (UniProt Q16595); assay: Simoa sandwich 2-step; capture Ab-1; frataxin 100 pg/mL
[22] = target: Recombinant, his tagged full length human frataxin protein (Abcam ab95502) (human) (UniProt Q16595); assay: Simoa sandwich 2-step (120 min-5 min); capture Ab-1; Diluent 1 + 10% NCS
[23] = target: Recombinant, his tagged full length human frataxin protein (Abcam ab95502) (human) (UniProt Q16595); assay: Simoa sandwich 2-step; capture Ab-1; 50 pM SβG; frataxin 500 pg/mL
[24] = target: Recombinant, his tagged full length human frataxin protein (Abcam ab95502) (human) (UniProt Q16595); assay: Simoa sandwich 2-step; capture Ab-1; 50 pM SβG; frataxin 6.17 pg/mL
[25] = target: Recombinant, his tagged full length human frataxin protein (Abcam ab95502) (human) (UniProt Q16595); assay: Simoa sandwich 2-step; capture Ab-1; frataxin 0.686 pg/mL

Sequence of UniProt Q16595 (Q16595 42-210): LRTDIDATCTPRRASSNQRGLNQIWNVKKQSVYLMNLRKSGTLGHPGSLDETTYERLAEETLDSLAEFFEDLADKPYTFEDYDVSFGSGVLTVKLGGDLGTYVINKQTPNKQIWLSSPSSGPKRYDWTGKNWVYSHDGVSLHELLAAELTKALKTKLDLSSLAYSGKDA

Ab-3, mouse monoclonal [18A5DB1] to Frataxin (Abcam ab110328) (antibody)
AEB rep1 [1]: 0.0165 AEB
AEB rep2 [1]: 0.0248 AEB
AEB rep3 [1]: 0.0202 AEB
Ave AEB [1]: 0.0205 AEB
S/B [1]: 2.48
Ave AEB [2]: 0.0717 AEB
S/B [2]: 1.6
AEB rep1 [3]: 3.57 AEB
AEB rep2 [3]: 3.99 AEB
AEB rep3 [3]: 3.61 AEB
Ave AEB [3]: 3.73 AEB
S/B [3]: 451
Ave AEB [4]: 0.0324 AEB
S/B [4]: 1.79
Ave AEB [5]: 2.9 AEB
S/B [5]: 15.2
Ave AEB [6]: 15.1 AEB
S/B [6]: 145
Ave AEB [7]: 0.318 AEB
S/B [7]: 3.33
Ave AEB [8]: 0.0434 AEB
S/B [8]: 3.95
Ave AEB [9]: 0.0923 AEB
S/B [9]: 5.08
LOD [10]: 0.28 pg/mL
Ave AEB [11]: 1.56 AEB
S/B [11]: 145
Ave AEB [12]: 0.0609 AEB
S/B [12]: 3.37
Ave AEB [13]: 0.023 AEB
S/B [13]: 1.27
Estimated LLOQ [14]: 1.16 pg/mL
LOD [14]: 0.551 pg/mL
Ave AEB [15]: 0.515 AEB
S/B [15]: 48
AEB Rep1 [16]: 1.16 AEB
AEB Rep2 [16]: 0.608 AEB
Ave AEB [16]: 0.885 AEB
S/B [16]: 39.1
Ave AEB [17]: 0.02 AEB
S/B [17]: 1.82
Ave AEB [18]: 0.521 AEB
S/B [18]: 11.6
LOD [19]: 1.14 pg/mL
Ave AEB [20]: 2.5 AEB
S/B [20]: 42.3
Ave AEB [21]: 7.11 AEB
S/B [21]: 88.8
LOD [22]: 0.759 pg/mL
Ave AEB [23]: 13.7 AEB
S/B [23]: 747
Ave AEB [24]: 0.194 AEB
S/B [24]: 10.6
Ave AEB [25]: 0.165 AEB
S/B [25]: 1.59
